Experimental data published in patent US20170224837A1.
Like-named read-outs stand apart in the source and are kept apart here.

Legend:
[1] = target: human Trop-2 (EGP-1, TACSTD2) on human tumor cells or tissues (human) (UniProt P09758); experiment: cell binding on NCI-N87 cells, anti-mouse-HRP, luminescence
[2] = target: human Trop-2 (EGP-1, TACSTD2) on human tumor cells or tissues (human) (UniProt P09758); experiment: cell-based or functional assay
[3] = target: human Trop-2 (EGP-1, TACSTD2) on human tumor cells or tissues (human) (UniProt P09758); experiment: cell binding assay; cell line not stated
[4] = target: recombinant human neonatal receptor (FcRn) (human) (UniProt P55899); experiment: SPR (BIACORE), low-density FcRn chip, three runs at 400 to 25 nM
[5] = target: rhTrop-2/TACSTD2 (Sino Biological, Inc.), recombinant human Trop-2 immobilized on CM5 chip (human) (UniProt P09758); experiment: SPR (BIACORE), Trop-2 chip
[6] = target: recombinant human neonatal receptor (FcRn) (human) (UniProt P55899); experiment: SPR (BIACORE), FcRn chip
[7] = target: rhTrop-2/TACSTD2 (Sino Biological, Inc.), recombinant human Trop-2 immobilized on CM5 chip (human) (UniProt P09758); experiment: SPR (BIACORE), low-density recombinant human Trop-2 chip, three runs
[8] = target: Recombinant human Trop-2 with a His-tag (Sino Biological, Inc., Cat#10428-H09H) (human) (UniProt P09758); experiment: ELISA on Ni-NTA strips coated with His-tagged recombinant human Trop-2
[9] = target: human Trop-2 (EGP-1, TACSTD2) on human tumor cells or tissues (human) (UniProt P09758); experiment: cell-based or functional assay; remark: listed apart in the source

Sequence of human Trop-2 (EGP-1, TACSTD2) on human tumor cells or tissues (human) (P09758 27-323): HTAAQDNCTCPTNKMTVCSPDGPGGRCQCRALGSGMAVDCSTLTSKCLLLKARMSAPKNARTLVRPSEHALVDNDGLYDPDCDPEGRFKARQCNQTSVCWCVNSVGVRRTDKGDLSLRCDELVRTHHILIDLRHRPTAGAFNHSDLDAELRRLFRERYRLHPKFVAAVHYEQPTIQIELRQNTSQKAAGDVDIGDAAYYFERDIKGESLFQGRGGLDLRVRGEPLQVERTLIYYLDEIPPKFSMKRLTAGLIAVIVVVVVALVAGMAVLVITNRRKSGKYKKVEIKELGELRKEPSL
Sequence of rhTrop-2/TACSTD2 (Sino Biological, Inc.), recombinant human Trop-2 immobilized on CM5 chip (human) (P09758 27-274 limits assumed): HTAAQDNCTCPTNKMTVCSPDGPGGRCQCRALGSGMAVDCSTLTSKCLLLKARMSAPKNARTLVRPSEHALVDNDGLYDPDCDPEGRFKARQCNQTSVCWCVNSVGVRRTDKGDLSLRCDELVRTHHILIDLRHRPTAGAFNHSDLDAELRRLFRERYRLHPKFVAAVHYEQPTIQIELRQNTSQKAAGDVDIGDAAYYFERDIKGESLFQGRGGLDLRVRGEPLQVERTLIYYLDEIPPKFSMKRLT
Sequence of recombinant human neonatal receptor (FcRn) (human) (P55899 24-297 limits assumed): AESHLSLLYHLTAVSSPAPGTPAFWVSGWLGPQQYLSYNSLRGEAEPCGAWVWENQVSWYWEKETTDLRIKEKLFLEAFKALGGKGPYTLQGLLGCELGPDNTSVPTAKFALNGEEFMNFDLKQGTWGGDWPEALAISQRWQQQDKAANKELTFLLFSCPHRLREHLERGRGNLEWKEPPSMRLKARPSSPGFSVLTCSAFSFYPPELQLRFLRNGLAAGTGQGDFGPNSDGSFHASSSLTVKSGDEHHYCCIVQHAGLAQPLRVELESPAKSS
Sequence of Recombinant human Trop-2 with a His-tag (Sino Biological, Inc., Cat#10428-H09H) (human) (P09758 27-274 limits assumed): as the sequence (P09758 27-274 limits assumed) above

## 162-46.2 (murine monoclonal antibody against human Trop-2, hybridoma ATCC HB-187)
[1]
  BMax (relative luminescent units): 8470
  Kd: 0.52 nM
  reduction of maximum binding (Bmax) against RS7: 25%

## MAB650 (murine monoclonal antibody against human Trop-2, R&D Systems)
[1]
  BMax (relative luminescent units): 6020
  Kd: 0.49 nM
  reduction of maximum binding (Bmax) against RS7: 50%

## Sacituzumab govitecan (IMMU-132, also known as hRS7-CL2A-SN-38) (antibody)
[2]
  ADCC, specific lysis of MDA-MB-468 (4-h LDH release, E:T 50:1, 33.3 nM): 8.6%
  Median fluorescence intensity of anti-rH2AX-AF488 staining (dsDNA breaks), HCC1806 (Trop-2+): 546 MFI
  decrease of ADCC relative to hRS7 (MDA-MB-468, NIH:OVCAR-3, BxPC-3): > 60%
  γH2AX induction in BxPC-3, Mean Fluorescence Intensity: 5350 MFI
  γH2AX induction in BxPC-3, Percent Positive: 69%
[3]
  Kd: 1.2 nM
[4]
  Kd: 192 nM
[5]
  fold improvement of KD against naked hRS7: 2 fold
[6]
  fold lower average binding level than hRS7: 2 fold
[7]
  Kd: 0.26 nM

B1: humanized RS7 (hRS7) anti-Trop-2 antibody, hRS7 IgG (antibody, INN chains, looked up, V domains shown, part only)
VH: QVQLQQSGSELKKPGASVKVSCKASGYTFTNYGMNWVKQAPGQGLKWMGWINTYTGEPTYTDDFKGRFAFSLDTSVSTAYLQISSLKADDTAVYFCARGGFGSSYWYFDVWGQGSLVTVSS
VL: DIQLTQSPSSLSASVGDRVSITCKASQDVSIAVAWYQQKPGKAPKLLIYSASYRYTGVPDRFSGSGSGTDFTLTISSLQPEDFAVYYCQQHYITPLTFGAGTKVEIK
[8]
  Kd: 0.3 nM
[9]
  ADCC, specific lysis of BxPC-3 by PBMC (E:T 100:1, 33.3 nM): 8.5%
  ADCC, specific lysis of MDA-MB-468 (4-h LDH release, E:T 50:1, 33.3 nM): 29.8%
[4]
  Kd: 92.4 nM
[7]
  Kd: 0.51 nM

B2: hA20-SN-38 (anti-CD20 hA20 / veltuzumab conjugated to SN-38), non-binding control conjugate (antibody, INN chains, looked up, V domains shown, part only)
VH: QVQLQQSGAEVKKPGSSVKVSCKASGYTFTSYNMHWVKQAPGQGLEWIGAIYPGMGDTSYNQKFKGKATLTADESTNTAYMELSSLRSEDTAFYYCARSTYYGGDWYFDVWGQGTTVTVSS
VL: DIQLTQSPSSLSASVGDRVTMTCRASSSVSYIHWFQQKPGKAPKPWIYATSNLASGVPVRFSGSGSGTDYTFTISSLQPEDIATYYCQQWTSNPPTFGGGTKLEIKR
modifications: SN-38 via CL2A linker
[9]
  γH2AX induction in BxPC-3, Mean Fluorescence Intensity: 2250 MFI
  γH2AX induction in BxPC-3, Percent Positive: 12.7%
